The text below walks through data of patent publication US20240024520A1 (UCB, published 2024).

One assay deals with T1, mouse serum albumin (mouse, UniProt P07724 25-608).
T1 construct: also called MSA
Nature of the assay: monoclonal phage ELISA. Background: ELISA stands for enzyme-linked immunosorbent assay.

The target of a further assay is rat serum albumin (rat, UniProt P02770 25-608). The assay can be described thus: monoclonal phage ELISA.
The target of assay [1] is T2, human complement component C5 (human, UniProt P01031 19-673; P01031 678-1676).
Assay [2] addresses T2, human complement component C5. This is another data set of the same source.
The target is the same in assay [3]. The source holds these as a separate data set.
For assay [4] the target is unchanged. The assay can be described thus: SPR (Biacore), C5, mean of n=3. Background: Surface plasmon resonance follows binding to a sensor surface in real time, without labels.
For assay [5] the target is unchanged. The assay can be described thus: SPR multi-cycle kinetics, human C5 immobilised, mean of n=3.
Assay [6] shares this target. Nature of the assay: cell-based or functional assay.
Assay [7] has the same target. The assay can be described thus: cell-based or functional assay. This is another data set of the same source.
Assay [8] has the same target. The assay can be described thus: SPR single-cycle kinetics, human C5, n=1.

Changes are numbered by the printed parent chain. Values joined by “and” are separate entries in the source; they are usually repeats but may differ in a detail not shown here. Equal entries are not always repeated. Where two headings read alike, the source gives them in different places. Ends that are not written are not given here. * marks the point of attachment. Palmitoyl = CCCCCCCCCCCCCCCC(=O)*

T2 sequence (P01031 19-673 limits assumed, chain 1 of 2): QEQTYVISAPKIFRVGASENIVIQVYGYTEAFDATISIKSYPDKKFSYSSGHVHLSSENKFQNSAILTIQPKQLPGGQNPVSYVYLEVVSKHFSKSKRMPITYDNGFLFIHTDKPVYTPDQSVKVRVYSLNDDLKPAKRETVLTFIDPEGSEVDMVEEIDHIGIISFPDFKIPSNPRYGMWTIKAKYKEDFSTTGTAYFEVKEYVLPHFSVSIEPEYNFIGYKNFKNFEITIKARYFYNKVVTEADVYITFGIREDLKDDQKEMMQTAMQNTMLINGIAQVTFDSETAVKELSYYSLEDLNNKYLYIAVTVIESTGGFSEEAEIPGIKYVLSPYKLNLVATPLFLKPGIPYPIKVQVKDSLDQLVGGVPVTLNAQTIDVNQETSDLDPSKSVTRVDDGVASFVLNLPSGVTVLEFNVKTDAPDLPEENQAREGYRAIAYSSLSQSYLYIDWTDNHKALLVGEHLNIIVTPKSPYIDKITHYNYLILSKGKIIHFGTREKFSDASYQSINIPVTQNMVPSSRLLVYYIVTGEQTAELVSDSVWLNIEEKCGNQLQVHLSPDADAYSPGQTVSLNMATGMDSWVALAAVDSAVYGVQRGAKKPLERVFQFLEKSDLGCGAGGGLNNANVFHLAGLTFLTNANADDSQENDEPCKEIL
T2 sequence (P01031 678-1676 limits assumed, chain 2 of 2): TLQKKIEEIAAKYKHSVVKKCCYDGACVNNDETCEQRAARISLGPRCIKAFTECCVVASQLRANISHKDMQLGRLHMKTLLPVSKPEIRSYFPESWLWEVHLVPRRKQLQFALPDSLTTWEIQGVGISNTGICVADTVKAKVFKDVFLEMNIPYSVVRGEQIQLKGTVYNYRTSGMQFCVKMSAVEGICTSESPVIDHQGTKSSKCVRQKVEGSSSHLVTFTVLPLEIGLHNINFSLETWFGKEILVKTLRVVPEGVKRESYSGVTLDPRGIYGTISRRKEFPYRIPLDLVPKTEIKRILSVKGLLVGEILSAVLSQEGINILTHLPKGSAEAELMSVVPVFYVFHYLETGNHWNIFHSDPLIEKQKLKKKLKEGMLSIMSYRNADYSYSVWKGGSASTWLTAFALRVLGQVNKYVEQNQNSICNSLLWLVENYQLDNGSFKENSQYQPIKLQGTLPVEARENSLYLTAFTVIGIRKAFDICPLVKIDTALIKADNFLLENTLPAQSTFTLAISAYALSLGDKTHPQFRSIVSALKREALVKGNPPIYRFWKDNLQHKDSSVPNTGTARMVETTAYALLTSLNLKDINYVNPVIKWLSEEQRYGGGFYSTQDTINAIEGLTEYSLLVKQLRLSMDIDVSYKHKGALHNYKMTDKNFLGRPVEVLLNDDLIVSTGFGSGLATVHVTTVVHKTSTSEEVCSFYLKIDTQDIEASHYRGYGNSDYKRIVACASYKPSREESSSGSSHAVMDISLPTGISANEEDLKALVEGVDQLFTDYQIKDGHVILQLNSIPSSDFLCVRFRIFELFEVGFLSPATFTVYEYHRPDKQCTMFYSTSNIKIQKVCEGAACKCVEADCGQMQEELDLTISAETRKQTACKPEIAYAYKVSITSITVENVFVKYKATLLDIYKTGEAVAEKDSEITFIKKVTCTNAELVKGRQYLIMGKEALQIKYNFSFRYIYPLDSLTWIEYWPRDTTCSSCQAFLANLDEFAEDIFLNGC
rat serum albumin, sequence (P02770 25-608 limits assumed): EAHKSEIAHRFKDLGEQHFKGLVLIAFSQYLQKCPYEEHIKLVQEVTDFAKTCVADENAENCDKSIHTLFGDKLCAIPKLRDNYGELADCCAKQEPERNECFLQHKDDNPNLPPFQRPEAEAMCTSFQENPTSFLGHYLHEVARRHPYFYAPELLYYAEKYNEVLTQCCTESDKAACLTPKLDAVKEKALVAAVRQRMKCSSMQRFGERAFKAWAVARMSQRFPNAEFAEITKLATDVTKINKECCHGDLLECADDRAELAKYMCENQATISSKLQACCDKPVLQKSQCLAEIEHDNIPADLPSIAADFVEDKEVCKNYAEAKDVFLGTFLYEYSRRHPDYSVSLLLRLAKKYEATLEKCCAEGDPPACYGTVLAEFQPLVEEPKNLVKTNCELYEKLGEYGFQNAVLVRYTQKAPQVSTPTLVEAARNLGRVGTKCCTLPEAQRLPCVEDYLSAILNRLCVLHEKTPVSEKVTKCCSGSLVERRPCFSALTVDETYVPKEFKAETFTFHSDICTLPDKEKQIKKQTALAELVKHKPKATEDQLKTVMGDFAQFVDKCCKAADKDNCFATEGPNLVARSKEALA

B1: ultralong CDR-H3 of SEQ ID NO: 499 displayed on M13 phage (other)
chain: TTVHQQTQKHCPDDDTDRDGCSRPDSRGGSGCGSYGRYGDQGGACCPLTYEFDV
notes: not shown: poly-histidine, c-myc tag, M13 pIII
As to B1, the binding result with mouse serum albumin and in the assay with rat serum albumin was “binds” in each case.

B2: PGT121 Fab-K57 knob domain fusion protein (Fab)
heavy: QMQLQESGPGLVKPSETLSLTCSVSGASISDSYWSWIRRSPGKGLEWIGYVHKSGDTNYSPSLKSRVNLSLDTSKNQVSLSLVAATAADSGKYYCARTLHGRRIYGSENLYFQGSGCPPGYKSGVDCSPGSECKWGCYAVDGRRYGGYGADSGVENLYFQGSEWFTYFYMDVWGNGTQVTVSSASTKGPSVFPLAPSSKSTSGGTAALGCLVKDYFPEPVTVSWNSGALTSGVHTFPAVLQSSGLYSLSSVVTVPSSSLGTQTYICNVNHKPSNTKVDKRVEPKSCDKTLEENLYFQGSGGSHHHHHHHHHH
light: QSVLTQPPDISVAPGETARISCGEKSLGSRAVQWYQHRAGQAPSLIIYNNQDRPSGIPERFSGSPDSPFGTTATLTITSVEAGDEADYYCHIWDSRVPTKWVFGGGTTLTVLGQPKAAPSVTLFPPSSEELQANKATLVCLISDFYPGAVTVAWKADSSPVKAGVETTTPSKQSNNKYAASSYLSLTPEQWKSHRSYSCQVTHEGSTVEKTVAPTECS
For B2, in [1], binding was put at a Kd of 4.1 nM, the koff is 0.000132 s⁻¹ and the kon was found to be 32300 M⁻¹ s⁻¹. Also, in [2], the Kd is 4.9 nM and 3 nM and 3.4 nM and 3.7 nM. Also, the Kd in assay [3] is 3.3 nM and 2.3 nM and 3.4 nM and 3 nM.

B3: PGT121 Fab-K136 knob domain fusion protein (Fab)
heavy: QMQLQESGPGLVKPSETLSLTCSVSGASISDSYWSWIRRSPGKGLEWIGYVHKSGDTNYSPSLKSRVNLSLDTSKNQVSLSLVAATAADSGKYYCARTLHGRRIYGSENLYFQGTCPDNYREVDGCDPYDCCLTTWCTNSYCTRYIENLYFQGSEWFTYFYMDVWGNGTQVTVSSASTKGPSVFPLAPSSKSTSGGTAALGCLVKDYFPEPVTVSWNSGALTSGVHTFPAVLQSSGLYSLSSVVTVPSSSLGTQTYICNVNHKPSNTKVDKRVEPKSCDKTLEENLYFQGSGGSHHHHHHHHHH
light: B2 light
As to B3, in [1], the Kd is < 0.1 nM, the koff was < 1e-05 s⁻¹ and the kon is 9520 M⁻¹ s⁻¹. Also, the Kd in [2] was 46.3 nM and 115 nM and 73 nM. Also, the Kd in assay [3] was 46.3 nM and 23.4 nM and 58.1 nM and 39.8 nM.

B4: PGT121 Fab-K92 knob domain fusion protein (Fab)
heavy: QMQLQESGPGLVKPSETLSLTCSVSGASISDSYWSWIRRSPGKGLEWIGYVHKSGDTNYSPSLKSRVNLSLDTSKNQVSLSLVAATAADSGKYYCARTLHGRRIYGSENLYFQGVTCPEGWSECGVAIYGYECGRWGCGHFLNSGPNISPYVTTGSENLYFQGSEWFTYFYMDVWGNGTQVTVSSASTKGPSVFPLAPSSKSTSGGTAALGCLVKDYFPEPVTVSWNSGALTSGVHTFPAVLQSSGLYSLSSVVTVPSSSLGTQTYICNVNHKPSNTKVDKRVEPKSCDKTLEENLYFQGSGGSHHHHHHHHHH
light: B2 light
For B4, in assay [1], the Kd is < 0.1 nM, the koff is < 2.93e-05 s⁻¹ and the on-rate (kon) was determined as 28000 M⁻¹ s⁻¹. Besides, in assay [2], the Kd is 14 nM and 10.3 nM and 15.5 nM and 13.1 nM. The Kd in [3] was 19.3 nM and 7.7 nM and 11.3 nM and 11.9 nM.

B5: PGT121 Fab-K149 knob domain fusion protein (Fab)
heavy: QMQLQESGPGLVKPSETLSLTCSVSGASISDSYWSWIRRSPGKGLEWIGYVHKSGDTNYSPSLKSRVNLSLDTSKNQVSLSLVAATAADSGKYYCARTLHGRRIYGSENLYFQGSCPDGFSYRSWDDFCCPMVGRCLAPRNGSENLYFQGSEWFTYFYMDVWGNGTQVTVSSASTKGPSVFPLAPSSKSTSGGTAALGCLVKDYFPEPVTVSWNSGALTSGVHTFPAVLQSSGLYSLSSVVTVPSSSLGTQTYICNVNHKPSNTKVDKRVEPKSCDKTLEENLYFQGSGGSHHHHHHHHHH
light: B2 light
In [1], B5 showed a Kd of 143 nM, a koff of 0.00162 s⁻¹ and a kon of 11300 M⁻¹ s⁻¹. For the same molecule, the Kd in [2] was 34.9 nM and 57.6 nM and 30.1 nM and 39.3 nM.

B6: hC3nb1-K57 loop 3 with C-terminal single-chain Fc tag (bispecific antibody, not shown: a dimerising Fc or GST)
VHH: QVQLVETGGGLVQAGGSLRLSCAASGSIFSLNAMGWFRQAPGKEREFVATINRSGGRTYYADSVKGSGGGSGCPPGYKSGVDCSPGSECKWGCYAVDGRRYGGYGADSGVSGGGSRFTISRDNGKNMVYLQMHSLKPEDTAIYYCAAGTGWSPQTDNEYNYWGQGTQVTVSS
notes: also called hC3Nb1 Loop 3
On to B6, for which, in assay [4], the Kd stood at 0.596 nM.

As to Palmitoyl-GCPPGYKSGVDCSPGSECKWGCYAVDGRRYGGYGADSGVGS (also: disulphides formed by free energy method, pairing not given here) [K57chemFE-Palmitoyl], in assay [5], the Kd came out at 9.52 nM, the koff came to 0.000477 s⁻¹ and the kon is 51100 M⁻¹ s⁻¹.

B7: hC3nb1-K57 loop 2 with C-terminal single-chain Fc tag (bispecific antibody, not shown: a dimerising Fc or GST)
VHH: QVQLVETGGGLVQAGGSLRLSCAASGSIFSLNAMGWFRQAPSGGGSGCPPGYKSGVDCSPGSECKWGCYAVDGRRYGGYGADSGVSGGGSKEREFVATINRSGGRTYYADSVKGRFTISRDNGKNMVYLQMHSLKPEDTAIYYCAAGTGWSPQTDNEYNYWGQGTQVTVSS
notes: also called hC3Nb1 Loop 2
For B7, binding in [4] was characterised by a dissociation constant (Kd) of 0.321 nM.

B8: K57 ultralong CDR-H3-hC3nb1 (bispecific antibody, not shown: a dimerising Fc or GST)
VHH: TTVHQRTIKSGCPPGYKSGVDCSPGSECKWGCYAVDGRRYGGYGADSGVGSTYTHEFYVDAWGQGSSSSGSSSSGQVQLVETGGGLVQAGGSLRLSCAASGSIFSLNAMGWFRQAPGKEREFVATINRSGGRTYYADSVKGRFTISRDNGKNMVYLQMHSLKPEDTAIYYCAAGTGWSPQTDNEYNYWGQGTQVTVSS
notes: tied to the label 'hC3Nb1 N-Term' on that ground; also called hC3Nb1 N-Term
In turn, B8 displayed a Kd in [4] of 0.192 nM.

B9: K92 knob domain peptide, chemically synthesised, free energy method (Example 4) (peptide)
peptide: TCPEGWSECGVAIYGYECGRWGCGHFLNSGPNISPYVTTGS
modifications: disulfide (positions not given here); also: disulphides formed in glutathione redox buffer, pairing not given here
notes: Disulphides formed in glutathione redox buffer
Regarding B9, in assay [6], the “Classical pathway C5b deposition ELISA, average Emax” value is -33.9% and the “Classical pathway C5b deposition ELISA, geomean IC50” value came to 6.6 nM. In [7], the “Alternative pathway C5b neoepitope ELISA, average Emax” value is 56.8% and the “Alternative pathway C5b neoepitope ELISA, geomean IC50” value was 46.2 nM. In [8], this molecule gave a Kd of 0.643 nM, a koff of 0.000103 s⁻¹ and a kon of 160000 M⁻¹ s⁻¹.

B10: ultralong CDR-H3 of SEQ ID NO: 497 displayed on M13 phage (other)
chain: TTVHQKTTRQTSCPDGYIAGDSSCYRWRCRGNNCCKYGENRLLNYYDYTCVPYRDTYEWYVD
notes: as for B1
In the case of B10, the binding result in the assay with mouse serum albumin is listed as “binds”.

In assay [5], cyclo(VCPDGFNWGYGCAAGSSRFCTRHDWCCYDERADSHTYGFCTGNRV) (also: disulphides formed by free energy method, pairing not given here, Head-to-tail cyclised K8chemFE) [K8 chemFE cyclic] displayed a Kd of 28.5 nM, a koff of 0.00259 s⁻¹ and a kon of 94000 M⁻¹ s⁻¹.

B11: ultralong CDR-H3 of SEQ ID NO: 506 displayed on M13 phage (other)
chain: TTVHQQTQERCPDDYTDRGGCSIPYNCGGSRCCAYGRNGGYGGVSCSRTYEFYVN
notes: as for B1
In the case of B11, the binding result in the assay with mouse serum albumin and with rat serum albumin was “binds” each time.

B12: ultralong CDR-H3 of SEQ ID NO: 504 displayed on M13 phage (other)
chain: B11 chain with N26S, G29D
notes: as for B1
For the molecule B12, the binding result with mouse serum albumin and in the assay with rat serum albumin was “binds” throughout.

B13: ultralong CDR-H3 of SEQ ID NO: 505 displayed on M13 phage (other)
chain: B11 chain with N38Y, G40D, V44I
notes: as for B1
On to B13, for which the binding result with mouse serum albumin and with rat serum albumin was “binds” each time.

B14: ultralong CDR-H3 of SEQ ID NO: 507 displayed on M13 phage (other)
chain: B11 chain with D14N, N26S, G29D
notes: as for B1
B14: the binding result with mouse serum albumin and in the assay with rat serum albumin was “binds” throughout.

B15: ultralong CDR-H3 of SEQ ID NO: 503 displayed on M13 phage (other)
chain: B11 chain with V44I, F52W, N55D
notes: as for B1
As to B15, the binding result with mouse serum albumin and in the assay with rat serum albumin was “binds” throughout.

B16: ultralong CDR-H3 of SEQ ID NO: 501 displayed on M13 phage (other)
chain: B11 chain with V44N, S45T, F52L, N55E
notes: as for B1
As to B16, the binding result in the assay with mouse serum albumin and with rat serum albumin was “binds” each time.

B17: ultralong CDR-H3 of SEQ ID NO: 508 displayed on M13 phage (other)
chain: B11 chain with D14N, N26T
notes: as for B1
Turning to B17, the binding result with mouse serum albumin and with rat serum albumin was “binds” each time.

B18: ultralong CDR-H3 of SEQ ID NO: 502 displayed on M13 phage (other)
chain: B11 chain with N26T
notes: as for B1
For B18, the binding result in the assay with mouse serum albumin and with rat serum albumin was “binds” throughout.

B19: ultralong CDR-H3 of SEQ ID NO: 500 displayed on M13 phage (other)
chain: B11 chain with V44I
notes: as for B1
For B19, the binding result in the assay with mouse serum albumin and with rat serum albumin was “binds” in each case.

In general, Kd refers to the constant that tells how readily two partners part at equilibrium. The low end stands for higher affinity, the high end for lower affinity. Usually koff stands for the rate constant with which the complex falls apart. A lower koff goes with slow dissociation. Broadly, the kon is the second-order rate constant of association. Read a low kon as slower complex formation.
